Source: the supplement of paper PMC5998384

Legend:
HeLa Kyoto [1] = assay: solubility in G1/S (NP-40 vs SDS abundance) (log2 ratio); higher = more soluble; conditions: cell cycle stage: G1/S
HeLa Kyoto [2] = assay: solubility change mitosis vs G1/S (difference of NP-40 vs SDS log2 ratios) (log2 ratio difference); higher = more soluble in mitosis
HeLa Kyoto [3] = assay: melting temperature (median over replicates), in situ; higher = more thermally stable
HeLa Kyoto [4] = assay: thermal stability score vs G1/S (z-score of summed log2 fold changes over temperatures); higher = more thermally stable than in G1/S
[5] = cell cycle stage: early G1 (4.5 h after nocodazole release)
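For melting temperature (median over replicates), in situ in this document: HeLa Kyoto cells synchronized by double thymidine or nocodazole block, proteins quantified by TMT10plex mass spectrometry, three independent biological replicates.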
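For solubility change mitosis vs G1/S (difference of NP-40 vs SDS log2 ratios) in this document: synchronized HeLa Kyoto cells (double thymidine block for G1/S, nocodazole release for mitosis), protein amounts in NP-40 versus SDS lysates quantified by mass spectrometry, three biological replicates.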
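For solubility in G1/S (NP-40 vs SDS abundance) in this document: HeLa Kyoto cells arrested at G1/S by double thymidine block, proteins quantified by TMT10plex mass spectrometry in mild NP-40 versus SDS extracts, three biological replicates.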
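For thermal stability score vs G1/S (z-score of summed log2 fold changes over temperatures) in this document: synchronized HeLa Kyoto cells, proteins quantified by TMT10plex mass spectrometry, three biological replicates, mitosis taken 0.5 h after nocodazole release, G1/S directly after double thymidine block.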

Chain of RHOB (chain, as listed by the source): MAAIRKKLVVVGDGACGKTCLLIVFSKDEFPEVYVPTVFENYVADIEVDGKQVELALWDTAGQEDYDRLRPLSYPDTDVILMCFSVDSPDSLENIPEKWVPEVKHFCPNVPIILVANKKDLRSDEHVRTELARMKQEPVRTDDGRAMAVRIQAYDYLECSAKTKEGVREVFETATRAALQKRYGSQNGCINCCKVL

Row | Substance | solubility in G1/S (log2) (HeLa Kyoto [1]) | solubility change mitosis (log2) (HeLa Kyoto [2]) | melting temperature (HeLa Kyoto [3]; cell cycle stage: G1/S) | melting temperature (HeLa Kyoto [3]; cell cycle stage: mitosis) | thermal stability score (HeLa Kyoto [4]; [5]) | thermal stability score (HeLa Kyoto [4]; cell cycle stage: mitosis)
1 | MAEKFDCHYCRDPLQGKKYVQKDGHHCCLKCFDKFCANTCVECRKPIGADSKEVHYKNRFWHDTCFRCAKCLHPLANETFVAKDNKILCNKCTTREDSPKCKGCFKAIVAGDQNVEYKGTVWHKDCFTCSNCKQVIGTGSFFPKGEDFYCVTCHETKFAKHCVKCNKAITSGGITYQDQPWHADCFVCVTCSKKLAGQRFTAVEDQYYCVDCYKNFVAKKCAGCKNPITGKRTVSRVSHPVSKARKPPVCHGKRLPLTLFPSANLRGRHPGGERTCPSWVVVLYRKNRSLAAPRGPGLVKAPVWWPMKDNPGTTTASTAKNAP [FHL1] | -0.37 | -0.0498 | 56.4 °C | 58.5 °C | 0.0455 | -3.17
2 | MDAGFFRGTSAEQDNRFSNKQKKLLKQLKFAECLEKKVDMSKVNLEVIKPWITKRVTEILGFEDDVVIEFIFNQLEVKNPDSKMMQINLTGFLNGKNAREFMGELWPLLLSAQENIAGIPSAFLELKKEEIKQRQIEQEKLASMKKQDEDKDKRDKEEKESSREKRERSRSPRRRKSRSPSPRRRSSPVRRERKRSHSRSPRHRTKSRSPSPAPEKKEKTPELPEPSVKVKEPSVQEATSTSDILKVPKPEPIPEPKEPSPEKNSKKEKEKEKTRPRSRSRSKSRSRTRSRSPSHTRPRRRHRSRSRSYSPRRRPSPRRRPSPRRRTPPRRMPPPPRHRRSRSPVRRRRRSSASLSGSSSSSSSSRSRSPPKKPPKRTSSPPRKTRRLSPSASPPRRRHRPSPPATPPPKTRHSPTPQQSNRTRKSRVSVSPGRTSGKVTKHKGTEKRESPSPAPKPRKVELSESEEDKGGKMAAADSVQQRRQYRRQNQQSSSDSGSSSSSEDERPKRSHVKNGEVGRRRRHSPSRSASPSPRKRQKETSPRGRRRRSPSPPPTRRRRSPSPAPPPRRRRTPTPPPRRRTPSPPPRRRSPSPRRYSPPIQRRYSPSPPPKRRTASPPPPPKRRASPSPPPKRRVSHSPPPKQRSSPVTKRRSPSLSSKHRKGSSPSRSTREARSPQPNKRHSPSPRPRAPQTSSSPPPVRRGASSSPQRRQSPSPSTRPIRRVSRTPEPKKIKKAASPSPQSVRRVSSSRSVSGSPEPAAKKPPAPPSPVQSQSPSTNWSPAVPVKKAKSPTPSPSPPRNSDQEGGGKKKKKKKDKKHKKDKKHKKHKKHKKEKAVAAAAAAAVTPAAIAAATTTLAQEEPVAAPEPKKETESEAEDNLDDLEKHLREKALRSMRKAQVSPQS [SRRM1] | -1.06 | 1.02 | 51.3 °C | 50 °C | -6.13 | -6.36
3 | MTTYSDKGAKPERGRFLHFHSVTFWVGNAKQATSFYCSKMGFEPLAYRGLETGSREVVSHVIKQGKIVFVLSSALNPWNKEMGDHLVKHGDGVKDIAFEVEDCDYIVQKARERGAKIMREPWVEQDKFGKVKFAVLQTYGDTTHTLVEKMNYIGQFLPGYEAPAFMDPLLPKLPKCSLEMIDHIVGNQPDQEMVSASEWYLKNLQFHRFWSVDDTQVHTEYSSLRSIVVANYEESIKMPINEPAPGKKKSQIQEYVDYNGGAGVQHIALKTEDIITAIRHLRERGLEFLSVPSTYYKQLREKLKTAKIKVKENIDALEELKILVDYDEKGYLLQIFTKPVQDRPTLFLEVIQRHNHQGFGAGNFNSLFKAFEEEQNLRGNLTNMETNGVVPGM [HPD] | 0.143 | -0.0296 | 53.6 °C | 53.5 °C | 1.14 | 1.46
4 | SBF1 | -0.118 | -0.108 | 50.9 °C | 50.4 °C | 0.301 | -0.247
5 | MFRKARRVNVRKRNDSEEEERERDEEQEPPPLLPPPGTGEEAGPGGGDRAPGGESLLGPGPSPPSALTPGLGAEAGGGFPGGAEPGNGLKPRKRPRENKEVPRASLLSFQDEEEENEEVFKVKKSSYSKKIVKLLKKEYKEDLEKSKIKTELNSSAESEQPLDKTGHVKDTNQEDGVIISEHGEDEMDMESEKEEEKPKTGGAFSNALSSLNVLRPGEIPDAAFIHAARKKRQMARELGDFTPHDNEPGKGRLVREDENDASDDEDDDEKRRIVFSVKEKSQRQKIAEEIGIEGSDDDALVTGEQDEELSRWEQEQIRKGINIPQVQASQPAEVNMYYQNTYQTMPYGSSYGIPYSYTAYGSSDAKSQKTDNTVPFKTPSNEMTPVTIDLVKKQLKDRLDSMKELHKTNRQQHEKHLQSRVDSTRAIERLEGSSGGIGERYKFLQEMRGYVQDLLECFSEKVPLINELESAIHQLYKQRASRLVQRRQDDIKDESSEFSSHSNKALMAPNLDSFGRDRALYQEHAKRRIAEREARRTRRRQAREQTGKMADHLEGLSSDDEETSTDITNFNLEKDRISKESGKVFEDVLESFYSIDCIKSQFEAWRSKYYTSYKDAYIGLCLPKLFNPLIRLQLLTWTPLEAKCRDFENMLWFESLLFYGCEEREQEKDDVDVALLPTIVEKVILPKLTVIAENMWDPFSTTQTSRMVGITLKLINGYPSVVNAENKNTQVYLKALLLRMRRTLDDDVFMPLYPKNVLENKNSGPYLFFQRQFWSSVKLLGNFLQWYGIFSNKTLQELSIDGLLNRYILMAFQNSEYGDDSIKKAQNVINCFPKQWFMNLKGERTISQLENFCRYLVHLADTIYRNSIGCSDVEKRNARENIKQIVKLLASVRALDHAMSVASDHNVKEFKSLIEGK [PAXBP1] | -0.54 | 0.153 | 48.6 °C | 49 °C | 0.626 | 1.5
6 | MPMFIVNTNVPRASVPDGFLSELTQQLAQATGKPPQYIAVHVVPDQLMAFGGSSEPCALCSLHSIGKIGGAQNRSYSKLLCGLLAERLRISPDRVYINYYDMNAANVGWNNSTFA [MIF] | 0.405 | -0.0337 | 53.5 °C | 52.5 °C | -7.37 | -7.71
7 | MAKAYDHLFKLLLIGDSGVGKTCLIIRFAEDNFNNTYISTIGIDFKIRTVDIEGKKIKLQVWDTAGQERFKTITTAYYRGAMGIILVYDITDEKSFENIQNWMKSIKENASAGVERLLLGNKCDMEAKRKVQKEQADKLAREHGIRFFETSAKSSMNVDEAFSSLARDILLKSGGRRSGNGNKPPSTDLKTCDKKNTNKCSLG [RAB13] | -0.134 | -0.198 | 53.5 °C | 53 °C | -0.483 | -1.07
8 | MAEAVLRVARRQLSQRGGSGAPILLRQMFEPVSCTFTYLLGDRESREAVLIDPVLETAPRDAQLIKELGLRLLYAVNTHCHADHITGSGLLRSLLPGCQSVISRLSGAQADLHIEDGDSIRFGRFALETRASPGHTPGCVTFVLNDHSMAFTGDALLIRGCGRTDFQQGCAKTLYHSVHEKIFTLPGDCLIYPAHDYHGFTVSTVEEERTLNPRLTLSCEEFVKIMGNLNLPKPQQIDFAVPANMRCGVQTPTA [ETHE1] | 0.214 | -0.0383 | 56.6 °C | 56.5 °C | -1 | -1.06
9 | MVKLAAKCILAGDPAVGKTALAQIFRSDGAHFQKSYTLTTGMDLVVKTVPVPDTGDSVELFIFDSAGKELFSEMLDKLWESPNVLCLVYDVTNEESFNNCSKWLEKARSQAPGISLPGVLVGNKTDLAGRRAVDSAEARAWALGQGLECFETSVKEMENFEAPFHCLAKQFHQLYREKVEVFRALA [IFT27] | 0.371 | -0.134 | 52.3 °C | 53.7 °C | -0.15 | -0.857
10 | MAEGSGEVVAVSATGAANGLNNGAGGTSATTCNPLSRKLHKILETRLDNDKEMLEALKALSTFFVENSLRTRRNLRGDIERKSLAINEEFVSIFKEVKEELESISEDVQAMSNCCQDMTSRLQAAKEQTQDLIVKTTKLQSESQKLEIRAQVADAFLSKFQLTSDEMSLLRGTREGPITEDFFKALGRVKQIHNDVKVLLRTNQQTAGLEIMEQMALLQETAYERLYRWAQSECRTLTQESCDVSPVLTQAMEALQDRPVLYKYTLDEFGTARRSTVVRGFIDALTRGGPGGTPRPIEMHSHDPLRYVGDMLAWLHQATASEKEHLEALLKHVTTQGVEENIQEVVGHITEGVCRPLKVRIEQVIVAEPGAVLLYKISNLLKFYHHTISGIVGNSATALLTTIEEMHLLSKKIFFNSLSLHASKLMDKVELPPPDLGPSSALNQTLMLLREVLASHDSSVVPLDARQADFVQVLSCVLDPLLQMCTVSASNLGTADMATFMVNSLYMMKTTLALFEFTDRRLEMLQFQIEAHLDTLINEQASYVLTRVGLSYIYNTVQQHKPEQGSLANMPNLDSVTLKAAMVQFDRYLSAPDNLLIPQLNFLLSATVKEQIVKQSTELVCRAYGEVYAAVMNPINEYKDPENILHRSPQQVQTLLS [COG6] | 0.289 | -0.0596 | 48.6 °C | 49.3 °C | 0.0299 | 0.655
11 | RHOB | 0.157 | -0.114 | 57.2 °C | 58.2 °C | -0.544 | -0.587
12 | MRRLNRKKTLSLVKELDAFPKVPESYVETSASGGTVSLIAFTTMALLTIMEFSVYQDTWMKYEYEVDKDFSSKLRINIDITVAMKCQYVGADVLDLAETMVASADGLVYEPTVFDLSPQQKEWQRMLQLIQSRLQEEHSLQDVIFKSAFKSTSTALPPREDDSSQSPNACRIHGHLYVNKVAGNFHITVGKAIPHPRGHAHLAALVNHESYNFSHRIDHLSFGELVPAIINPLDGTEKIAIDHNQMFQYFITVVPTKLHTYKISADTHQFSVTERERIINHAAGSHGVSGIFMKYDLSSLMVTVTEEHMPFWQFFVRLCGIVGGIFSTTGMLHGIGKFIVEIICCRFRLGSYKPVNSVPFEDGHTDNHLPLLENNTH [ERGIC2] | -0.0386 | -0.216 | 54.8 °C | 53.8 °C | -2.27 | -7.02
13 | MTSLMPGAGLLPIPTPNPLTTLGVSLSSLGAIPAAALDPNIATLGEIPQPPLMGNVDPSKIDEIRRTVYVGNLNSQTTTADQLLEFFKQVGEVKFVRMAGDETQPTRFAFVEFADQNSVPRALAFNGVMFGDRPLKINHSNNAIVKPPEMTPQAAAKELEEVMKRVREAQSFISAAIEPESGKSNERKGGRSRSHTRSKSRSSSKSHSRRKRSQSKHRSRSHNRSRSRQKDRRRSKSPHKKRSKSRERRKSRSRSHSRDKRKDTREKIKEKERVKEKDREKEREREKEREKEKERGKNKDRDKEREKDREKDKEKDREREREKEHEKDRDKEKEKEQDKEKEREKDRSKEIDEKRKKDKKSRTPPRSYNASRRSRSSSRERRRRRSRSSSRSPRTSKTIKRKSSRSPSPRSRNKKDKKREKERDHISERRERERSTSMRKSSNDRDGKEKLEKNSTSLKEKEHNKEPDSSVSKEVDDKDAPRTEENKIQHNGNCQLNEENLSTKTEAV [SREK1] | -0.849 | 0.262 | 48.9 °C | 50.6 °C | 1.86 | 4.67
14 | MAALAPLPPLPAQFKSIQHHLRTAQEHDKRDPVVAYYCRLYAMQTGMKIDSKTPECRKFLSKLMDQLEALKKQLGDNEAITQEIVGCAHLENYALKMFLYADNEDRAGRFHKNMIKSFYTASLLIDVITVFGELTDENVKHRKYARWKATYIHNCLKNGETPQAGPVGIEEDNDIEENEDAGAASLPTQPTQPSSSSTYDPSNMPSGNYTGIQIPPGAHAPANTPAEVPHSTGVASNTIQPTPQTIPAIDPALFNTISQGDVRLTPEDFARAQKYCKYAGSALQYEDVSTAVQNLQKALKLLTTGRE [VTA1] | 0.0799 | 0.325 | 50.9 °C | 50.4 °C | -1.99 | -2.34
